The record followed here is paper PMC9169624, “Human HELB is a processive motor protein that catalyzes RPA clearance from single-stranded DNA” (Proceedings of the National Academy of Sciences of the …, 2022).

The target of the assay is human Replication Protein A (RPA) complex (human) (UniProt P27694).
Sequence of human Replication Protein A (RPA) complex (human) (P27694 whole entry, chain 1 of 3): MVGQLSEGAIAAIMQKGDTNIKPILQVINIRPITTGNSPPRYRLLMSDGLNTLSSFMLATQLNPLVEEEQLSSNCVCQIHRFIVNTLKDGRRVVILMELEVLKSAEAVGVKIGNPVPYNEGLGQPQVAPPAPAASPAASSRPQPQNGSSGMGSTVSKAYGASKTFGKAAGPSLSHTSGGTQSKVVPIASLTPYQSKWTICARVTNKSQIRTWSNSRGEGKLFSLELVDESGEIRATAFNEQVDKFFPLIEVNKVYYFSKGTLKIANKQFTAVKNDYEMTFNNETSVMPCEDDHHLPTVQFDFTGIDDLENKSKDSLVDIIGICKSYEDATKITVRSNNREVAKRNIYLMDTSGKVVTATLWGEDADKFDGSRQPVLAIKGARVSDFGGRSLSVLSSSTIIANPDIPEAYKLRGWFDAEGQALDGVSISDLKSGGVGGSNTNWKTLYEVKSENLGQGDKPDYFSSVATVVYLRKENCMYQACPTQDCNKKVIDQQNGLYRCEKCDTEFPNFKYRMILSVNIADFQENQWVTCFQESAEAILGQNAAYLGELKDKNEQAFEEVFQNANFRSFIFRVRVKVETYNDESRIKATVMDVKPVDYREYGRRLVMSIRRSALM
Sequence of human Replication Protein A (RPA) complex (human) (P15927 whole entry, chain 2 of 3, further chain): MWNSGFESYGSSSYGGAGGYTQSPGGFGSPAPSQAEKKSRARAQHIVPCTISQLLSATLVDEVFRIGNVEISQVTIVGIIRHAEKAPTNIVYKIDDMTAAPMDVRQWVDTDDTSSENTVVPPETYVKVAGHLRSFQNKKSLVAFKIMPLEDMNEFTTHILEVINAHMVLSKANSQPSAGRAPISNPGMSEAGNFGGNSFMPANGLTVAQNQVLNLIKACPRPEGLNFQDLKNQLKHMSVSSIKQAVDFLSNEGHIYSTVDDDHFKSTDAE
Sequence of human Replication Protein A (RPA) complex (human) (P35244 whole entry, chain 3 of 3, further chain): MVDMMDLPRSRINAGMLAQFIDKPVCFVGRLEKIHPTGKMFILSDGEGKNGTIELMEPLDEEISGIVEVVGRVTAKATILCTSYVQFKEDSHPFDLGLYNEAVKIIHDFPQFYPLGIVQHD

Sequence of Human DNA helicase B (HELB) (Q8NG08 whole entry): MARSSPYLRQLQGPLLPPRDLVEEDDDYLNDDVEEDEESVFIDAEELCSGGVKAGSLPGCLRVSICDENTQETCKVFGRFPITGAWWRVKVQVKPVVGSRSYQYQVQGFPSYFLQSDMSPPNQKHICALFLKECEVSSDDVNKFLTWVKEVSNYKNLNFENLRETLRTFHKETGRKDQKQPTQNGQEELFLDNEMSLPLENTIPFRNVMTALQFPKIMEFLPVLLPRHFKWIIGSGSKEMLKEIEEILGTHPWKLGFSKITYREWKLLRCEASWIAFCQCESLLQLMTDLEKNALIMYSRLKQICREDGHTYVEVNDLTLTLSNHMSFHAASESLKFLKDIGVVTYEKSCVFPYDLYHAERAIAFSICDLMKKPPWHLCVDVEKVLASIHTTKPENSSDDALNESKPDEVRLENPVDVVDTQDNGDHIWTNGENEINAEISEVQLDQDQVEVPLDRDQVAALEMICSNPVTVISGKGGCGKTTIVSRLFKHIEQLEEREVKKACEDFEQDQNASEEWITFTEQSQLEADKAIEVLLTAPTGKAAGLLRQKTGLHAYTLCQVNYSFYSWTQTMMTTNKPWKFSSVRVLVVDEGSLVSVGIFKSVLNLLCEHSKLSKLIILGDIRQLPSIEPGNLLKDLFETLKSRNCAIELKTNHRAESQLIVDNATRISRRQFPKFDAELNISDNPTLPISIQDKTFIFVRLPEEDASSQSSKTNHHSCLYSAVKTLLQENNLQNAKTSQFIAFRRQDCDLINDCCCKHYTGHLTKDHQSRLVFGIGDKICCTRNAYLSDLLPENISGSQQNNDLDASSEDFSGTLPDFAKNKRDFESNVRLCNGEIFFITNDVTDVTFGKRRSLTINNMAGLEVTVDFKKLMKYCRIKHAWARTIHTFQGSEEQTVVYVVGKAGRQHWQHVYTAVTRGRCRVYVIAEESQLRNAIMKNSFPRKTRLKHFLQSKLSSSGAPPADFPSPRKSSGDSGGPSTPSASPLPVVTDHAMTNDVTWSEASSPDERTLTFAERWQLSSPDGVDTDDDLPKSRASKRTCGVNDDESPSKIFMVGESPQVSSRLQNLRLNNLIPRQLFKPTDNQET

As to “Human DNA helicase B (HELB) (from UniProt Q8NG08 1-1087) (enzyme)”, the observed rate of ATP hydrolysis by HELB at low φX174 ssDNA (0.1 × KDNA), RPA titrated from one RPA per 200 nt to one RPA per 20 nt turned out to be 8 fold.
